Results taken from patent US20050080234A1 (Takeda / Millennium, published 2005).
Where a chain is given by its changes, count along the chain named. Where two headings read alike, the source gives them in different places.

T1: wild-type mouse C140 receptor (mouse, UniProt P55086 32-399)
T1 sequence: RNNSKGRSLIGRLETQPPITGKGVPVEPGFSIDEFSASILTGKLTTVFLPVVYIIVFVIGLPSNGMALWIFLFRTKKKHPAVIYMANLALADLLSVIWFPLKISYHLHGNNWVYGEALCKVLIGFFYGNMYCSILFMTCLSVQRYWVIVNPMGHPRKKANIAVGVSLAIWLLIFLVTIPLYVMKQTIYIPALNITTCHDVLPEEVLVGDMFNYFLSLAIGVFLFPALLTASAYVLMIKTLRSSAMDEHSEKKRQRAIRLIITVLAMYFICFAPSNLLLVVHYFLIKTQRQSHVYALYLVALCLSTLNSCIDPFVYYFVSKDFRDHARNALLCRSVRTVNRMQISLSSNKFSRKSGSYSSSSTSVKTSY

T2: mouse C140 receptor mutant 35His (mouse, UniProt P55086 32-399)
T2 sequence: T1 sequence with S8H

T3: mouse C140 receptor mutant 35Pro (mouse, UniProt P55086 32-399)
T3 sequence: T1 sequence with S8P

T4: mouse C140 receptor mutant 35Arg (mouse, UniProt P55086 32-399)
T4 sequence: T1 sequence with S8R


Key:
Assay in all cases: cell-based or functional assay
[1] = target: T1, wild-type mouse C140 receptor
[2] = target: T2, mouse C140 receptor mutant 35His
[3] = target: T3, mouse C140 receptor mutant 35Pro
[4] = target: T4, mouse C140 receptor mutant 35Arg
[5] = target: T1, wild-type mouse C140 receptor; remark: listed apart in the source
[6] = target: T1, wild-type mouse C140 receptor; remark: listed apart in the source

Row | Fold Increase in 45Ca [5] [fold] | Molecule | other results
1 |  | trypsin (enzyme) | Fold increase in 45Ca [1]: 6.6 fold; Fold increase in 45Ca [2]: 0 fold; Fold increase in 45Ca [3]: 0 fold; Fold increase in 45Ca [4]: 0 fold
2 | 8.5 | SLIGRA [peptide SLIGRA] | 
3 | 1.3 | ALIGRL [peptide ALIGRL] | 
4 | 15 | SLIGRL [agonist peptide SLIGRL] | Fold Increase in 45Ca [2]: 23 fold; Fold Increase in 45Ca [3]: 23 fold; Fold Increase in 45Ca [6]: 11 fold; Fold Increase in 45Ca [4]: 15 fold
5 | 4.3 | SLIARL [peptide SLIARL] | 
6 | 0 | SLAGRL [peptide SLAGRL] | 
7 | 0 | SAIGRL [peptide SAIGRL] | 
8 | 1.7 | SFFLRW [thrombin receptor agonist SFFLRW] | 
9 | 0 | SLIGAL [peptide SLIGAL] | 
